According to PMC2816219:

Target: F-actin (non-muscle human actin, pre-polymerized in vitro) (human) (UniProt P60709)
Assay: co-sedimentation; constant protein (16 nM GST-ARN127(25), 150 nM GST-Htt exon 1(25)) with increasing F-actin (0-8 µM or 0-16 µM); gels quantified for percent bound; approximate Kd

Kd [nM]	Substance
1000	GST-ARN127(25) (from UniProt P10275 1-127) (domain or fragment)
2000	GST-Htt exon 1(25) (domain or fragment)
